The results in this text go back to patent US20250281611A1 (BIOSCEPTRE AUST, published 2025).

Experiment [1] concerns the target T1, nfP2X7 CAR 1.
T1 construct: Expressed on T cells with truncated EGFR as marker gene; also called anti-nfP2X7 receptor CAR 1; nfP2X7 targeted CAR on EGFR+ T cells
The experiment can be described thus: flow cytometry, CAR T cells, anti-His-FITC, EGFR+ MFI over background 0.4. As to the method:
(§1) nfP2X₇ CAR T cells were incubated with different BRiDGE variants at saturating concentrations. […] The MFI intensity correlates with the number of secondary bound antibodies bound to the BRiDGEs that are only detected if they are bound to the CAR T cells. EGFR was used as a marker gene to detect the CAR expression. Thus, the EGFR+ T cell population was defined as the CAR expressing cells and the EGFR− T cell population was defined as the CAR negative subset. MFI: median fluorescence intensity. EGFR: epidermal growth factor receptor. BLItz: Bio-Layer interferometry (BLI) technology using HIS-tag identification tips. HIS-tag MFI Ratio: relative index that is calculated by the testing condition MFI divided by the control MFI, which corresponds to the MFI measured on EGFR+ T cells (defined as CAR positive cells) divided by the MFI measured on the EGFR− T cells (defined as CAR negative cells). […] The higher the MFIR, the stronger the binding.
Background: In flow cytometry, cells or beads pass a laser one at a time.

Experiment [2] addresses T2, CD33 (UniProt P20138 18-364, limits assumed).
T2 construct: whole, on cells; also called Siglec-3; CD33 on MOLM-13 cells
The experiment is described as follows: flow cytometry, MOLM-13 cells, anti-His-FITC detection. As to the method:
(§2) MOLM-13 cells were incubated with different CD33 BRIDGE variants at saturating concentrations. […] The MFI intensity correlates with the number of secondary antibodies bound to the CD33 BRIDGE variants that are only detected if they are bound to the MOLM-13 cells. MFI: median fluorescence intensity. BLItz: Bio-Layer interferometry (BLI) technology using HIS-tag identification tips. […] The higher the MFIR, the stronger the binding.

In experiment [3] the target is T1, nfP2X7 CAR 1. The experiment is described as follows: flow cytometry, CAR T cells, anti-His-FITC, EGFR+ over EGFR- cells. As to the method: as §1
The target of experiment [4] is T1, nfP2X7 CAR 1. The experiment can be described thus: flow cytometry, nfP2X7 CAR T cells (EGFR+), anti-His-FITC detection. As to the method:
as §1

Experiment [5] concerns the target T2, CD33. The experiment is described as follows: flow cytometry, MOLM-13 cells, anti-His-FITC detection, ratio to no bridge. As to the method: as §2

T2 sequence (P20138 18-364 limits assumed): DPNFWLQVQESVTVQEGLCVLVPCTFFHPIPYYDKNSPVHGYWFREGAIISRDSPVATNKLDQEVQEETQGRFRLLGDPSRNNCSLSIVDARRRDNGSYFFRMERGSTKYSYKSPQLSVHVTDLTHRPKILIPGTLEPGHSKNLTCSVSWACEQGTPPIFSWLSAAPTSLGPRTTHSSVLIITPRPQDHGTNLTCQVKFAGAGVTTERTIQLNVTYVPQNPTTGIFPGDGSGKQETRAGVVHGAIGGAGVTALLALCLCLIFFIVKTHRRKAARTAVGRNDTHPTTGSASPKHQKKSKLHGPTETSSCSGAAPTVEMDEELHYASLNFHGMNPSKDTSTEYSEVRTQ

B1: CD33 BRIDGE variant B1 (Fab, V domains shown)
VH: QVQLVQSGAEVKKPGSSVKVSCKASGYTFTDYNMHWVRQAPGQGLEWIGYIYPYNGGTGYNQKFKSKATITADESTNTAYMELSSLRSEDTAVYYCARGRPAMDYWGQGTLVTVSS
VL: DIQMTQSPSSLSASVGDRVTITCRASESVDNYGISFMNWFQQKPGKAPKLLIYAASNQGSGVPSRFSGSGSGTDFTLTISSLQPDDFATYYCQQSKEVPWTFGQGTKVEIKR
notes: Lintuzumab-based Fab bridging molecule
Take B1: in experiment [1], the “HisTag MFI Ratio (background 0.4)” value came out at 2.7. In addition, the “MFI HisTag FITC” value in experiment [2] amounted to 6.11. Also, the “HisTag MFI Ratio of EGFR+/EGFR-” value in experiment [3] is 2.5. For the same molecule, in experiment [4], the “MFI HisTag FITC in EGFR+ Population” value came out at 1.08. Further, in experiment [5], the “MFIR HisTag FITC” value is 9.12.

B2: CD33 BRIDGE variant B3 (Fab, V domains shown)
VH: QVQLVQSGAEVKKPGSSVKVSCKASGYTFTDYNMHWVRQAPGQGLEWIGYIYPYNGGTGYNQKFKSKATITADESTNTAYMELSSLRSEDTAVYYCARGRPAMDYWGQGTLVTVSS
VL: DIQMTQSPSSLSASVGDRVTITCRASESVDNYGISFMNWFQQKPGKAPKLLIYAASNQGSGVPSRFSGSGSGTDFTLTISSLQPDDFATYYCQQSKEVPWTFGQGTKVEIKR
notes: as for B1
On to B2, for which, in experiment [1], the “HisTag MFI Ratio (background 0.4)” value is 2.6. In experiment [2], the “MFI HisTag FITC” value was 6.76. For the same molecule, the “HisTag MFI Ratio of EGFR+/EGFR-” value in experiment [3] is 2.4. Besides, the “MFI HisTag FITC in EGFR+ Population” value in experiment [4] amounted to 1.04. In addition, in experiment [5], the “MFIR HisTag FITC” value amounted to 10.1.

B3: CD33 BRIDGE variant B2 (Fab, V domains shown)
VH: QVQLVQSGAEVKKPGSSVKVSCKASGYTFTDYNMHWVRQAPGQGLEWIGYIYPYNGGTGYNQKFKSKATITADESTNTAYMELSSLRSEDTAVYYCARGRPAMDYWGQGTLVTVSS
VL: DIQMTQSPSSLSASVGDRVTITCRASESVDNYGISFMNWFQQKPGKAPKLLIYAASNQGSGVPSRFSGSGSGTDFTLTISSLQPDDFATYYCQQSKEVPWTFGQGTKVEIKR
notes: as for B1
B3: the “HisTag MFI Ratio (background 0.4)” value in experiment [1] was determined as 2.8. Further, the “MFI HisTag FITC” value in experiment [2] was 5.59. In addition, the “HisTag MFI Ratio of EGFR+/EGFR-” value in experiment [3] was found to be 2.5. For the same molecule, in experiment [4], the “MFI HisTag FITC in EGFR+ Population” value was 1.11. In addition, in experiment [5], the “MFIR HisTag FITC” value was 8.34.

B4: CD33 BRIDGE variant B7 (Fab, V domains shown)
VH: QVQLVQSGAEVKKPGSSVKVSCKASGYTFTDYNMHWVRQAPGQGLEWIGYIYPYNGGTGYNQKFKSKATITADESTNTAYMELSSLRSEDTAVYYCARGRPAMDYWGQGTLVTVSS
VL: DIQMTQSPSSLSASVGDRVTITCRASESVDNYGISFMNWFQQKPGKAPKLLIYAASNQGSGVPSRFSGSGSGTDFTLTISSLQPDDFATYYCQQSKEVPWTFGQGTKVEIKR
notes: as for B1
Regarding B4, the “HisTag MFI Ratio (background 0.4)” value in experiment [1] was determined as 3.6. Moreover, the “MFI HisTag FITC” value in experiment [2] was 5.52. Also, the “HisTag MFI Ratio of EGFR+/EGFR-” value in experiment [3] was found to be 3. Moreover, the “MFI HisTag FITC in EGFR+ Population” value in experiment [4] came out at 1.45. Moreover, the “MFIR HisTag FITC” value in experiment [5] came to 8.24.

B5: CD33 BRIDGE variant B4 (Fab)
light: GHNYTTRNILPGLNITSTFHKTSGSGKEPKSSDKTHTDIQMTQSPSSLSASVGDRVTITCRASESVDNYGISFMNWFQQKPGKAPKLLIYAASNQGSGVPSRFSGSGSGTDFTLTISSLQPDDFATYYCQQSKEVPWTFGQGTKVEIKRTVAAPSVFIFPPSDEQLKSGTASVVCLLNNFYPREAKVQWKVDNALQSGNSQESVTEQDSKDSTYSLSSTLTLSKADYEKHKVYACEVTHQGLSSPVTKSFNRGECHHHHHH
heavy: QVQLVQSGAEVKKPGSSVKVSCKASGYTFTDYNMHWVRQAPGQGLEWIGYIYPYNGGTGYNQKFKSKATITADESTNTAYMELSSLRSEDTAVYYCARGRPAMDYWGQGTLVTVSSASTKGPSVFPLAPSSKSTSGGTAALGCLVKDYFPEPVTVSWNSGALTSGVHTFPAVLQSSGLYSLSSVVTVPSSSLGTQTYICNVNHKPSNTKVDKKVEPKSCHHHHHH
notes: as for B1
As to B5, the “HisTag MFI Ratio (background 0.4)” value in experiment [1] is 4.2. For the same molecule, in experiment [2], the “MFI HisTag FITC” value worked out at 5.53. Besides, the “HisTag MFI Ratio of EGFR+/EGFR-” value in experiment [3] worked out at 3.1. In addition, in experiment [4], the “MFI HisTag FITC in EGFR+ Population” value turned out to be 1.68. For the same molecule, the “MFIR HisTag FITC” value in experiment [5] was found to be 8.25.

B6: CD33 BRIDGE variant B5 (Fab)
light: GHNYTTRNILPGLNITSTFHKTSGSGKGSEPKSSDKTHTDIQMTQSPSSLSASVGDRVTITCRASESVDNYGISFMNWFQQKPGKAPKLLIYAASNQGSGVPSRFSGSGSGTDFTLTISSLQPDDFATYYCQQSKEVPWTFGQGTKVEIKRTVAAPSVFIFPPSDEQLKSGTASVVCLLNNFYPREAKVQWKVDNALQSGNSQESVTEQDSKDSTYSLSSTLTLSKADYEKHKVYACEVTHQGLSSPVTKSFNRGECHHHHHH
heavy: QVQLVQSGAEVKKPGSSVKVSCKASGYTFTDYNMHWVRQAPGQGLEWIGYIYPYNGGTGYNQKFKSKATITADESTNTAYMELSSLRSEDTAVYYCARGRPAMDYWGQGTLVTVSSASTKGPSVFPLAPSSKSTSGGTAALGCLVKDYFPEPVTVSWNSGALTSGVHTFPAVLQSSGLYSLSSVVTVPSSSLGTQTYICNVNHKPSNTKVDKKVEPKSCHHHHHH
notes: as for B1
With B6, the “HisTag MFI Ratio (background 0.4)” value in experiment [1] amounted to 3.5. For the same molecule, in experiment [2], the “MFI HisTag FITC” value turned out to be 5.86. The “HisTag MFI Ratio of EGFR+/EGFR-” value in experiment [3] turned out to be 2.8. The “MFI HisTag FITC in EGFR+ Population” value in experiment [4] amounted to 1.4. The “MFIR HisTag FITC” value in experiment [5] amounted to 8.75.

B7: CD33 BRIDGE variant B6 (Fab)
light: GHNYTTRNILPGLNITSTFHKTSGSGKGGGSEPKSSDKTHTDIQMTQSPSSLSASVGDRVTITCRASESVDNYGISFMNWFQQKPGKAPKLLIYAASNQGSGVPSRFSGSGSGTDFTLTISSLQPDDFATYYCQQSKEVPWTFGQGTKVEIKRTVAAPSVFIFPPSDEQLKSGTASVVCLLNNFYPREAKVQWKVDNALQSGNSQESVTEQDSKDSTYSLSSTLTLSKADYEKHKVYACEVTHQGLSSPVTKSFNRGECHHHHHH
heavy: QVQLVQSGAEVKKPGSSVKVSCKASGYTFTDYNMHWVRQAPGQGLEWIGYIYPYNGGTGYNQKFKSKATITADESTNTAYMELSSLRSEDTAVYYCARGRPAMDYWGQGTLVTVSSASTKGPSVFPLAPSSKSTSGGTAALGCLVKDYFPEPVTVSWNSGALTSGVHTFPAVLQSSGLYSLSSVVTVPSSSLGTQTYICNVNHKPSNTKVDKKVEPKSCHHHHHH
notes: as for B1
For the molecule B7, the “HisTag MFI Ratio (background 0.4)” value in experiment [1] worked out at 4.9. Further, the “MFI HisTag FITC” value in experiment [2] turned out to be 6.25. In addition, in experiment [3], the “HisTag MFI Ratio of EGFR+/EGFR-” value was 3.4. The “MFI HisTag FITC in EGFR+ Population” value in experiment [4] was determined as 1.96. Further, the “MFIR HisTag FITC” value in experiment [5] was 9.33.

B8: CD33 BRIDGE variant B10 (Fab)
light: GHNYTTRNILPGLNITSTFHKTSGSGKEPKSSDKTHTGSDIQMTQSPSSLSASVGDRVTITCRASESVDNYGISFMNWFQQKPGKAPKLLIYAASNQGSGVPSRFSGSGSGTDFTLTISSLQPDDFATYYCQQSKEVPWTFGQGTKVEIKRTVAAPSVFIFPPSDEQLKSGTASVVCLLNNFYPREAKVQWKVDNALQSGNSQESVTEQDSKDSTYSLSSTLTLSKADYEKHKVYACEVTHQGLSSPVTKSFNRGECHHHHHH
heavy: QVQLVQSGAEVKKPGSSVKVSCKASGYTFTDYNMHWVRQAPGQGLEWIGYIYPYNGGTGYNQKFKSKATITADESTNTAYMELSSLRSEDTAVYYCARGRPAMDYWGQGTLVTVSSASTKGPSVFPLAPSSKSTSGGTAALGCLVKDYFPEPVTVSWNSGALTSGVHTFPAVLQSSGLYSLSSVVTVPSSSLGTQTYICNVNHKPSNTKVDKKVEPKSCHHHHHH
notes: as for B1
As for B8, in experiment [1], the “HisTag MFI Ratio (background 0.4)” value worked out at 5. In addition, in experiment [2], the “MFI HisTag FITC” value was determined as 6.86. Also, the “HisTag MFI Ratio of EGFR+/EGFR-” value in experiment [3] was 3.5. For the same molecule, the “MFI HisTag FITC in EGFR+ Population” value in experiment [4] turned out to be 1.99. For the same molecule, in experiment [5], the “MFIR HisTag FITC” value was found to be 10.2.
